One protein from PMC2819980 can be followed below.

Substrate in the data set: NCCCP(=O)(O)OP(=O)(O)OC[C@H]1O[C@@H](n2ccc(N)nc2=O)[C@H](O)[C@@H]1O
The data set is described as follows: steady-state kinetics. It counts as biochemical, Streptomyces rubellomurinus.

B1: FrbG (Streptomyces rubellomurinus) (protein)
chain: MTHYATVICGGGPAGVSAVVAAAVQGRLEEFLDRGVLLVEATGRAGSGSIPHYGIRANSLGSAFLECLDGPAGSGLLAGLADSAEARELRGWADEYPPLPVVGAFLTLVGERVVDALRRHPRCDALLGHRVVEVRTGPERATVLLSGPDGELSHTGDRVLLTMGGRERTELAPDALAALVERRPGLRVLSSGEVITDPSWHPDAASPHRALGSIAVLGGAHSAWAVAAHLARLARAGWFAGPVEVTVVERRLPPIFYFSAAEARAEGYRWDEADVCGPSGRVHRFGGLRGPARELARQVMGLAAEKAPDGFGQVVLDGPWTAEALEAAVGDADLVITALGYDARLPRLLGADGRELELARPRGAVDTGRDGLPGLAAGGRAERLVMYGLGAGLVPSEETGGEPGYRGRLDGVWVYQHDIGAVILRALLANDRTEDGR
The term Km denotes the substrate concentration at which the rate is half of its maximum. What is called kcat is the number of substrate molecules converted per active site and unit of time at saturation. As a reminder, the kcat/Km is the turnover number divided by the Michaelis constant. For B1, the Km was 15.1 ± 1.5 µM, the kcat worked out at 0.0987 ± 0.00633 s⁻¹ and the kcat/Km amounted to 6520 M⁻¹ s⁻¹.
